Laboratory results published in paper PMC5182059.
Positions count from the first letter of the chain named. Numbers in names are those of the source.

B1: Ric-8A (1-491) G457A (domain or fragment)
chain: MEPRAVADALETGEEDAVTEALRSFNREHSQSFTFDDAQQEDRKRLAKLLVSVLEQGLSPKHRVTWLQTIRILSRDRSCLDSFASRQSLHALACYADIAISEEPIPQPPDMDVLLESLKCLCNLVLSSPTAQMLAAEARLVVRLAERVGLYRKRSYPHEVQFFDLRLLFLLTALRTDVRQQLFQELHGVRLLTDALELTLGVAPKENPLVILPAQETERAMEILKVLFNITYDSVKREVDEEDAALYRYLGTLLRHCVMADAAGDRTEEFHGHTVNLLGNLPLKCLDVLLALELHEGSLEFMGVNMDVINALLAFLEKRLHQTHRLKECVAPVLSVLTECARMHRPARKFLKAQVLPPLRDVRTRPEVGDLLRNKLVRLMTHLDTDVKRVAAEFLFVLCSESVPRFIKYTGYGNAAGLLAARGLMAGGRPEGQYSEDEDTDTEEYREAKASINPVTARVEEKPPNPMEGMTEEQKEHEAMKLVNMFDKLSR
B2: Ric-8A (1-491) R458A (domain or fragment)
chain: B1 chain with A457G, R458A
B3: Ric-8A (1-491) V459A (domain or fragment)
chain: B1 chain with A457G, V459A
B4: Ric-8A (1-491) E460A (domain or fragment)
chain: B1 chain with A457G, E460A
B5: Ric-8A (1-491) E461A (domain or fragment)
chain: B1 chain with A457G, E461A
B6: Ric-8A (1-491), rat (Resistance to Inhibitors of Cholinesterase 8A) (domain or fragment)
chain: B1 chain with A457G
B7: Ric-8A (1-491) K462A (domain or fragment)
chain: B1 chain with A457G, K462A
B8: Ric-8A (1-491) P463A (domain or fragment)
chain: B1 chain with A457G, P463A
B9: Ric-8A (1-491) P464A (domain or fragment)
chain: B1 chain with A457G, P464A
B10: Ric-8A (1-491) N465A (domain or fragment)
chain: B1 chain with A457G, N465A
B11: Ric-8A (1-491) P466A (domain or fragment)
chain: B1 chain with A457G, P466A
B12: Ric-8A (1-491) M467A (domain or fragment)
chain: B1 chain with A457G, M467A
B13: Ric-8A (1-491) E468A (domain or fragment)
chain: B1 chain with A457G, E468A
B14: Ric-8A (1-491) G469A (domain or fragment)
chain: B1 chain with A457G, G469A
B15: (1-452)Ric-8A truncation mutant (domain or fragment)
chain: MEPRAVADALETGEEDAVTEALRSFNREHSQSFTFDDAQQEDRKRLAKLLVSVLEQGLSPKHRVTWLQTIRILSRDRSCLDSFASRQSLHALACYADIAISEEPIPQPPDMDVLLESLKCLCNLVLSSPTAQMLAAEARLVVRLAERVGLYRKRSYPHEVQFFDLRLLFLLTALRTDVRQQLFQELHGVRLLTDALELTLGVAPKENPLVILPAQETERAMEILKVLFNITYDSVKREVDEEDAALYRYLGTLLRHCVMADAAGDRTEEFHGHTVNLLGNLPLKCLDVLLALELHEGSLEFMGVNMDVINALLAFLEKRLHQTHRLKECVAPVLSVLTECARMHRPARKFLKAQVLPPLRDVRTRPEVGDLLRNKLVRLMTHLDTDVKRVAAEFLFVLCSESVPRFIKYTGYGNAAGLLAARGLMAGGRPEGQYSEDEDTDTEEYREAKASI
B16: Ric-8A (1-491) P454A (domain or fragment)
chain: B1 chain with P454A, A457G
B17: Ric-8A (1-491) V455A (domain or fragment)
chain: B1 chain with V455A, A457G
B18: Ric-8A (1-491) T456A (domain or fragment)
chain: B1 chain with T456A, A457G

Target: myristoylated Gαi1 harboring a hexahistidine tag in the helical domain (rat) (UniProt P10824)
Sequence of UniProt P10824 (P10824 whole entry, the tested form may be a part): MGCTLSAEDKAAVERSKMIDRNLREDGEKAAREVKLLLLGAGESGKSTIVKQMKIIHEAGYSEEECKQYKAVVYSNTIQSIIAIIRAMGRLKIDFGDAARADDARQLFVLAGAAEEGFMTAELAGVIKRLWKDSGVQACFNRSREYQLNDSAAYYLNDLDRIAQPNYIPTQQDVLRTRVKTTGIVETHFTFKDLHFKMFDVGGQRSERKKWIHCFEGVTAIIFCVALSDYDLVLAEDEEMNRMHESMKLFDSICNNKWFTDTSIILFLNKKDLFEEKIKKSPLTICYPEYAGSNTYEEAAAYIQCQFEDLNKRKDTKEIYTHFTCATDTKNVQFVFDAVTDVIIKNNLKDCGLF

Row | Binder | v1: initial velocity of GDP to GTPγS exchange at Gαi1•GDP (2 μM) on adding GTPγS (10 μM) and Ric-8A (2 μM), tryptophan fluorescence, 25°C | v2: initial rate of GTPγS binding to pre-formed Gαi1:Ric-8A (2 μM each, incubated 5 min before 10 μM GTPγS), with release of Ric-8A, tryptophan fluorescence, 25°C
1 | B1 | 3.47 µM/min | 6.02 µM/min
2 | B2 | 0.63 µM/min | 0.37 µM/min
3 | B3 | 5.65 µM/min | 6.85 µM/min
4 | B4 | 6.54 µM/min | 5.36 µM/min
5 | B5 | 7.45 µM/min | 5.06 µM/min
6 | B6 | 3.84 µM/min | 4.66 µM/min
7 | B7 | 4.46 µM/min | 5.15 µM/min
8 | B8 | 2.9 µM/min | 4.78 µM/min
9 | B9 | 2.83 µM/min | 4.73 µM/min
10 | B10 | 2.25 µM/min | 4.56 µM/min
11 | B11 | 0.47 µM/min | 0.34 µM/min
12 | B12 | 2.17 µM/min | 4.57 µM/min
13 | B13 | 3.82 µM/min | 6.23 µM/min
14 | B14 | 0.63 µM/min | 0.26 µM/min
15 | B15 | 0.86 µM/min | 0.39 µM/min
16 | B16 | 2.88 µM/min | 5.39 µM/min
17 | B17 | 0.82 µM/min | 0.25 µM/min
18 | B18 | 0.59 µM/min | 0.24 µM/min
